The DeepSol protein solubility set

Test: soluble on expression in E. coli; label from the status in PepcDB or PDB records
For “MSLEQLATTSQQEILAERPQLTTKIAVDLDVKGIKEKDEDAWQNVQIYLAQINNEYADGSERYQYLVQTTVDKALRAKGYYNSQYQFVKTVSAEQKPLLTLNVQLDNQKVTIDEVDIQLQGDANTDEDFIELKKTAPNQGDSLAHNAYDDFKSHIEGLAFKKGYFDGQWLYHRLEVYPQNHSVDWRLAYDSGKRYRYGEINFIDNQIKEEYLTNILKIAPQQYYYASDLSLMTADYLSSNWFSSVLVEPKLNEKAKLVDLKIFFQPKKKNKVEIGAGFATQLGARLQLNWKKPWLNERGHSIDSRTYLSLPEQTLELGYNVPLRQNPLHYYYQFSGSLEHQNQQDTKSIAGSFGLQRFWTHETGWSFSAGIKSRYDSFTQANDKHKTLLVYPTAALNRTQTDGNRFPLWGDSQRITVNWGAKIFGSDVSFYSWKASSTWVRTYLDRHRLFLRGEVGQVHTKDFHQIPPTLRYFAGGDMSIRGFAYKSISPKEPKSGKLIGGSHLVTTTAEYQYRIYPDWWAAIFYDTGLVSDKFDHRALHSGAGVGVRWISPIGAIKFDIATPVKSPNNKRGVQFYIGLGSEEGHHHHHH”, the “soluble on expression in E. coli” value was “not soluble”. In the case of “MSLKPLSSPLQQYWQTVVERLPEPLAEESLSAQAKSVLTFSDFVQDSVIAHPEWLTELESQPPQADEWQHYAAWLQEALCNVSDEAGLMRELRLFRRRIMVRIAWAQTLALVTEESILQQLSYLAETLIVAARDWLYDACCREWGTPCNAQGEAQPLLILGMGKLGGGELNFSSDIDLIFAWPEHGCTQGGRRELDNAQFFTRMGQRLIKVLDQPTQDGFVYRVDMRLRPFGESGPLVLSFAALEDYYQEQGRDWERYAMVKARIMGDSEGVYANELRAMLRPFVFRRYIDFSVIQSLRNMKGMIAREVRRRGLTDNIKLGAGGIREIEFIVQVFQLIRGGREPSLQSRSLLPTLSAIAELHLLSENDAEQLRVAYLFLRRLENLLQSINDEQTQTLPSDELNRARLAWAMDFADWPQLTGALTAHMTNVRRVFNELIGDDESETQEESLSEQWRELWQDALQEDDTTPVLAHLSEDDRKQVLTLIADFRKELDKRTIGPRGRQVLDHLMPHLLSDVCAREDAAVLSRITALLVGIVTRTTYLELLSEFPAALKHLISLCAASPMIASQLARYPLLLDELLDPNTLYQPTATDAYRDELRQYLLRVPEDDEEQQLEALRQFKQAPVLRIAAADIAGTLPVMKVSDHLTWLAEAMIDAVVQQAWVQMVARYGKPNHLNEREGRGFAVVGYGKLGGWELGYSSDLDLIFLHDCPMDAMTDGEREIDGRQFYLRLAQRIMHLFSTRTSSGILYEVDARLRPSGAAGMLVTSAEAFADYQKNEAWTWEHQALVRARVVYGDPQLTAHFDAVRREIMTLPREGKTLQTEVREMREKMRAHLGNKHRDRFDIKADEGGITDIEFITQYLVLRYAHEKPKLTRWSDNVRILELLAQNDIMEEQEAMALTRAYTTLRDELHHLALQELPGHVSEDCFTAERELVRASWQKWLVEEEGHHHHHH”, the “soluble on expression in E. coli” value is reported as “soluble”. With “LRTGIDNVLRAKTGGLIVLGYNENMKGIVDGGFYLDCPFSPASLYELAKMDGAIILNEDGTKILYANTQLNPDNAISSNETGIRHRTAERVAKQTGNLVISISQRRNVITLYHGHL” the “soluble on expression in E. coli” value was “soluble”. In the case of “MLLDKLSRPLKVLRISLTDRCNLRCNFCMPPGKEYNFLPKRQLLTPEEIEEYVKIFAKLGVEKVRLTGGEPLLREDLEEIIQRISKVEGIKDIALTTNGVFLKERLKALKEAGLKRITVSVHSLNPEKNQKLVNRSVNLGEVFEVIIRAKELGFKVKVNSVIIKGFNDDEILDLARFFKNLGVTLRFIEYMDVGTVNDWDFSKVVSADEILNLMKKEFTFYPLPKRPEDTSMDFIYEDGNKFGIIASVTKPFCRGCNRIRLSADGKLYTCLFSDKGHDLRNAVDKENFIKEVWKDRKDRYSELRRQMKRERKVEMFKVGGLEHHHHHH”, the “soluble on expression in E. coli” value is reported as “not soluble”. With “MTETKEERVHQVFEKIYKRYDVMNSVISFQRHKAWRKDTMKRMNVQEGQSALDVCCGTADWAIALGKAVGPTGHVEGLDFSENMLSIGKKKIADERLDHVFLRHGNAMELPYADDTFDFVTIGFGLRNVPDYMQVLREMARVTKPGGKVVCLETSQPTIPVFKQLYFFYFRHVMPLFGKMFAKSYDEYSWLQESTLSFPGRDRLAQMFKEVGLTDVQVKPYSGGAAAMHLGVKESYDEESRNVTCLEHHHHHH” the “soluble on expression in E. coli” value was “not soluble”. For “MKKILLCCSAGMSTSMLVKKMQQAAESKGIECKIDALSVNAFEEAIQEYDVCLLGPQVRFQLEELRKTADEYGKNIAAISPQAYGMMKGDEVLQQALDLIN”, the “soluble on expression in E. coli” value was “not soluble”. For “MKKLLIMLIRFYQRYISPLKPPTCRFTPTCSNYFIQALEKHGLLKGTFLGLRRILRCNPLSKGGYDPVPEEFSFKPRRRWS”, the “soluble on expression in E. coli” value was “soluble”. With “MVGWRRMGLPADSLSDEALLALVARGDEEAFRALFRRYAGSFLALARRMGLDGAAAEDVVQEAMIRVWQKAKEFDPRRGSARAFLLTLGHHAAVDEVRRRAARPLPLEPDPEREEEAFDLPGPGLDEEGHLDRTRLGRALKALSPEERRVIEVLYYQGYTHREAASLLGLPLGTLKTWARRALSKLKEVLREP” the “soluble on expression in E. coli” value was “soluble”. For “MGSDKIHHHHHHMVNFSYRVFAAVVEKKTFFHAAESLNVTPSAVSHSISQLENELGFPLFLRNHSGVELTNDGKTVLPVIQAILNTEEELYQVSASIKGLNSGRIRIGAFSSVCINWLPTIIRRFKNQYPQVEVTVFQGNFNQIADGVSNGSIDIGFSSLPVDDKLLVEPLIKDRIYCVAPSDFVPKDKMNVTNQDIGRRRFILQQIDYDRDTKKALDQYNVTPNSLTYSIDDQSILSMVESGLGLGILPELALKKLSGNVHIYPFDKNFARTICLVTNKNLAQAPSTKRMLKEINSFLRSNYKNQFLG”, the “soluble on expression in E. coli” value was “not soluble”. For “IHTMWKGTISFGLVNIPIKLHAATENKDVRLRQLHKECKTPINYLKVCPNCDAEVEPNDIVKAYEYAKNKFVELDEEELASLKKEQEDKAVEIIDFVKLQEIDPIYFDKSYYMSPGDGGGKAYTLLREALAESEKIGVAKIIIRAKEHLAVIRVYKNTLLMETIHFPDEVRAVDQVPNVPE”, the “soluble on expression in E. coli” value was “not soluble”. For “MGSDKIHHHHHHMTVLYKGSLKQNNDPFHVTLLSKEHIEQILFLQNVVVEGLEDKSRLQPLSQEEFQYILEGNGMMIGAFIKNELIAFRALLVPPIDDEHLGLDIGLPESELHRVIYQEISNVHPNCRGNGMQKILATVIMDELQKENGKYDYVCCTVAPFNIPSLKDKFSQGMEIAALKEKYGGSMRYVFVKELREDKEKDWTEIKSVPMNNAGGQQALLSEGYRGYEMEKVDEDFVVKFGR”, the “soluble on expression in E. coli” value was “not soluble”. In the case of “MAHHHHHHMKKPEHVRNIVYEIKRKVQIPVSVKIRTGVDDCDSFPFLRSFIECVSSVGCTHFIVHARKAWLKGLDPKQNRSVPPLQYSKVYTLCQLYPHLKFTLNGGIKTIEEAVALLNGYLPREDKCDGEKTYVQVQNYHVNPLNGVMLGRACMENTTVLSQTDQLVYNEKPPHTAFSRRTVLDAYKSYLEENSSLCSLSSAFELLKPILGILKGMPGHRIFRNKVDMYIRNYSSTLPCSGILEKAMVDVDAVAPGCLDLPLADYKLQQEYIKNY”, the “soluble on expression in E. coli” value is reported as “not soluble”. For “MSGINGAGPSNFFWRWRADDEPVTERERDSSSGANLTNSPQLRPESPTVSGRRLLRSNALSRQTREWQETTSASAERATPPVEPRQPPEAQPAERIVAERIVQELVRAGANLNNVRTMLRNVMDNNAVAFSRVEWNILLQHFPDMHTNGISSDSVLANELRQTLRQVVHQQRTQRALAPILSPAPSRPVASSSRSSQRTLLGRFTGWMAPRQTSSSSQATSSTSVDRHPQDLNQLESLRLADAERRNRSANQTDTDEALRRLTQAGVDMERLSTSLGRYIHSFQPAPPDLRRLLESVGIDPDIPEELTLVNNPVLNLNVALNRMLASRQATTESSSVFPSRAGDTRVRTLPVMPEREDNENNVAYGVRLLRLNPEAEVERVVEAFITDPSSRPEVVADIHAVLRSITSQFRQLRTISKADAESQDFRDAADYPDDPTSCLFGEDLSLSNPHQQVIGLAGESTDILQPYSQEGNKALRFMDMKKLAEHLASKPVHPMNRDRLDDKNIAGYAFRVVPD”, the “soluble on expression in E. coli” value was “not soluble”. With “MKRVLVVDDEESITSSLSAILEEEGYHPDTAKTLREAEKKIKELFFPVIVLDVWMPDGDGVNFIDFIKENSPDSVVIVITGHGSVDTAVKAIKKGAYEFLEKPFSVERFLLTIKHAFEEYSKKAPPQEEIEFVGEHPKILEIKRLIPKIAKSKAPVLITGESGTGKEIVARLIHRYSGRKGAFVDLNCASIPQELAESELFGHEKGAFTGALTRKKGKLELADQGTLFLDEVGELDQRVQAKLLRVLETGSFTRLGGNQKIEVDIRVISATNKNLEEEIKKGNFREDLYYRLSVFQIYLPPLRERGKDVILLAEYFLKKFAKEYKKNCFELSEETKEYLMKQEWKGNVRELKNLIERAVILCEGEVIKPEDLGLKEKSWRDLSYLLKIKELKEAKKEFEKIFIEEKLREYDYDLKRTAEEIGIDLSNLYRKIKSLNIRVKSS” the “soluble on expression in E. coli” value was “soluble”. With “MQYGAIVVTFNRKQLLIESITALLNQTVPPAKIIIIDNHSTDGTKAELQTADILANPSVDYRYLTKNIGGAGGFARGMQIAAADPNLDWASMSDDDAIFEPDYFEKLIAYQQDHPNRQILTGSVYIEDGRLQADQRNRFTNWSTFQAQAVPEREYRGNFEFDQYTFCGVFMSVAVIKQVGVADAGYFIWWDDCEYAVRTAKLSRPVNVSAAKLIHKTALPSLDFKSKFVPDWRLYYGQRNRLITIKRWRANSLVSLGWLLGFYARLAIQLCGPFYRGYRKMVIRVYLEALRDASREREGLNPNFMPGQKFLEHHHHHH” the “soluble on expression in E. coli” value was “soluble”. For “TVEAKNETFAPQHPDQYLSWKATSEQSERVDALAEDPRLVILWAGYPFSRDYNKPRGHAFAVTDVRETLRTGAPKNAEDGPLPMACWSCKSPDVARLIQKDGEDGYFHGKWARGGPEIVNNLGCADCHNTASPEFAKGKPELTLSRPYAARAMEAIGKPFEKAGRFDQQSMVCGQCHVEYYFDGKNKAVKFPWDDGMKVENMEQYYDKIAFSDWTNSLSKTPMLKAEHPEYETWTAGIHGKNNVTCIDCHMPKVQNAEGKLYTDHKIGNPFDNFAQTCANCHTQDKAALQKVVAERKQSINDLKIKVEDQLVHAHFEAKAALDAGATEAEMKPIQDDIRHAQWRWDLAIASHGIHMHAPEEGLRMLGTAMDKAADARTKLARLLATKGITHEIQIPDISTKEKAQQAIGLNMEQIKAEKQDFIKTVIPQWEEQARKNGLLS”, the “soluble on expression in E. coli” value was “soluble”. For “MDSRPGLRTTSPSSGTRTGRSNTRTLPPDPLLECAGRTRWPFGIREPDEDYPVTIIETEGFLNLVSVSAVALNQPFSLFFGAGVVLIPVRFECMRTPPVPAGRGGRVIRIVKFGIVRHLFSLLAQQVPVVQADGWIVNQNDQKKQNPPKRVKCGCVEDA”, the “soluble on expression in E. coli” value was “not soluble”. With “MGHHHHHHSHMIGPIIDKLEKVAVRGGDKKLKPEYDIMCKVKSWVIDQKKPVRFYHDWNDKEIEVLNKHLFLTSKPMVYLVNLSEKDYIRKKNKWLIKIKEWVDKYDPGALVIPFSGALELKLQELSAEERQKYLEANMTQSALPKIIKAGFAALQLEYFFTAGPDEVRAWTIRKGTKAPQAAGKIHTDFEKGFIMAEVMKYEDFKEEGSENAVKAAGKYRQQGRNYIVEDGDIIFFKFNTPRQPKKK” the “soluble on expression in E. coli” value was “not soluble”. For “MGSDKIHHHHHHMTRIVESLAEISDLYDAVFCDLWGCVHDGITAFDEAIEALRAFKAKGGTVLLLTNAPRPRASVATQLDDFGIPRDCWDVIATSGDSARAAMLSGAVGTKVWHIGEPEHAPFFAPMDLVADAVDVTRVPLDEAEGIVCTGPFDPKADPSELRPQFLLAKTRRLKLLCANPDIVVDRGESREWCAGALAKLYTEMGGESLYFGKPHPPIYDLARRRLVQMGKPTPDDRILAIGDGIVTDVPGGIGENIDTLFITGGLARDETGTDHQPDPAKLARFLTDAQLEPTYSVGMLR”, the “soluble on expression in E. coli” value was “not soluble”. In the case of “MAVSHSVKERTISENSLIILLQGLQGRVTTVDLRDESVAHGRIDNVDAFMNIRLAKVTYTDRWGHQVKLDDLFVTGRNVRYVHIPDDVNITSTIEQQLQIIHRVRNFGGKGQGRWEFPPKNCK”, the “soluble on expression in E. coli” value is reported as “not soluble”.
